Reference: patent publication US6143719A, “Bradykinin analogs as selective thrombin inhibitors” (The Regents of the University of Michigan, priority 1996, dated 2000)
Ends that are not written are not given here.

Columns and labels:
Human platelets in PRP = experiment: γ-thrombin-induced aggregation of human platelets in PRP in vitro; format: cell-based; conditions: 20 nM γ-thrombin
Procedure: Platelet aggregation studies on the PRP were conducted on a 4-channel aggregometer (BioData-PAP-4, Bio Data Corp., Hatboro, Pa.). The degree of platelet aggregation was determined by measuring the increase in light transmission through a stirred suspension of PRP maintained at 37° C. Platelet aggregation was induced in the PRP sample by addition of 20 μM ADP and γ-thrombin according to the method of Harfenist et al., Thromb. Haemost. 53, 183 (1985). […] Like human platelets, rabbit platelets display a variable response to γ-thrombin. Each rabbit's platelets were evaluated before BK analog infusion for their threshold response to γ-thrombin. The rabbit platelets used in this experiment were responsive to 10 nM to 40 nM γ-thrombin. Simultaneous γ-thrombin-induced platelet aggregation studies were performed with 10, 20, and 40 nM γ-thrombin and 20 μM ADP.
The protocol for the human platelet study was identical to that for the functional study with white rabbits described above in Section III.A, with the following differences.
Blood samples were obtained from normal human volunteers. Platelet counts were measured with a Coulter counter, Model 2F (Coulter, Hialeah, Fla.,) and adjusted to a platelet count of 200,000 platelets/μl. Each individual's platelets at baseline were measured for their threshold response to γ-thrombin. Typical threshold levels were between 10 nM to 40 nM.

[1] = water solubility of synthesized peptides; format: physicochemical
α-thrombin = α-thrombin (Homo sapiens, UniProt P00734); experiment: α-thrombin cleavage of thrombin receptor peptide NAT12 (HPLC); format: biochemical; set-up: cleavage product peak 3, share of NAT12 peak 1 area / cleavage product peak 2, share of NAT12 peak 1 area: dose or concentration left out as unconfirmed
Procedure: A further study was performed to determine whether BK analogs prevent α-thrombin from cleaving the thrombin receptor reported by Vu et al., Cell 64, 1057 (1991). A peptide, NAT12 (SEQ ID NO:2), which spans amino acids […] of the α-thrombin cleavage site on the thrombin receptor, was used to determine whether the BK analogs described herein blocked α-thrombin cleavage of the cloned receptor.
The cleavage study was performed according to the method of Molino et al., J. Biol. Chem. 270,11168(1995),inwhichNAT12(SEQ ID NO:2) was dissolved in a solution of 0.01 M NaH2 PO4 and 0.15 M NaCl, pH 7.4. […] Following incubation, each mixture was separated by applying the mixture to a Vyadec C-18 HPLC column in 0.1% trifluoroacetic acid and eluting the mixture with a gradient from 0% to 100% of 80% MeCN and 0.1% trifluoroacetic acid. The size of the separated products were confirmed by mass spectrometry.

human platelets = format: cell-based; conditions: FIG. 2, concentration not given
Procedure: The cytoplasmic free Ca^2+ concentration ([Ca^2+ ]i) was measured using the fluorescent Ca^2 + indicator fura-2 (Molecular Probes, Inc., Eugene, Oreg.). Gel filtered platelets in Hepes-Tyrode's buffer were loaded with fura-2 by incubation at 37° C. with 1 μM fura-2/acetoxymethyl ester for 45 min according to the method of Rasmussen et al., J. Biol. Chem. 268, 14322 (1993). The labeled platelets were then re-gel filtered to remove any excess probe. Aliquots of the labeled platelet suspension were transferred into a quartz cuvette with a magnetic stirrer, which was then placed in a thermostatically controlled chamber at 37° C. in a fluorescence spectrophotometer (Dual Wave Length Shimazdu SP5000 Spectrofluorometer, Shimazdu USA, Pittsburgh, Pa.). Reagents were directly added to the cuvette. The excitation wave lengths varied between 340 and 380 nm. The fluorescence was measured by recording emitted light at 510 nm as reported by Fisher et al, Mol. Pharm. 35, 195 (1989). The minimum emission was determined on a 20 mM digitonin, 10 mM EGTA solubilized platelet sample; maximum emission was determined on the same sample with 10 mM Ca^2+ added. The intraplatelet free Ca^2+ concentration was calculated by the method of Grykiewicz et al., J. Biol. Chem. 260, 3440 (1985). The ratio of the fluorescence readings was calculated as R=340/380 nm and processed according to the equation [Ca^2+ ]i =KD ((R-Rmin)/Rmax -R))(Sf2 /Sb2) to determine the intraplatelet free Ca^2+ concentration. The KD for fura-2 was assumed to be 224 nM. Rmax and Rmin are the maximum and minimum fluorescence ratios measured at the end of the experiment, respectively; Sf2 and Sb2 are the fluorescence values at 380 nm in the absence and presence of saturating [Ca^2+ ], respectively.

washed platelets = experiment: 125I-α-thrombin binding to platelets; set-up: species or system human; conditions: 200 nM HK
Procedure: Gel filtered platelets were placed into polypropylene tubes and diluted with Hepes-Tyrode's buffer, containing 2 mM CaCl2 and 50 μM ZnCl2 and additions, to a final concentration of 2×10^8 platelets/ml. The reaction was started by the addition of 1 nM ^125 I-α-thrombin, which was prepared by using the iodogen technique as reported by Meloni et al., J. Biol. Chem. 266, 6786 (1991). Incubations were performed at 37° C. for specified times with various additions. After incubation, 50 μl aliquots were removed in triplicate for each experimental point and placed in polypropylene microcentrifuge tubes with an extended tip containing 200 μl of an oil mixture which consisted of 1 part Apiezon A oil to 9 parts of n-butylphthalate (Gustafson et al., J. Clin. Invest. 78, 810 (1986)), and centrifuged at room temperature for 2 min at 10,900× g in a microcentrifuge. (Model E, Beckman Instruments, Palo Alto, Calif.) The supernatant was removed and the tips amputated for placement in the gamma counter. The radioactivity present in the cell pellet was determined with an LKB Rack Gamma Counter (LKB Instruments, Inc., Gaithersburg, Md.). Nonspecific binding was measured in the presence of a 100-fold molar excess of α-thrombin.

[2] = procoagulant activity of purified HK; set-up: species or system human; conditions: HK purified from plasma
Procedure: HK was purified from plasma by a modification of the procedures of Johnson et al., Thromb. Res. 48, 187 (1987) and Muller-Esterl et al., Methods Enzymol 163, 240 (1987). One hundred ml of 1 mM DFP-treated fresh frozen plasma was thawed at 37° C., to which 10 mM benzamidine-HCI, 40 μg/ml Polybrene, 2 mM EDTA, 0.2 mM PMSF, 0.2 mg/ml soybean trypsin inhibitor, 100 U/ml aprotinin and 2 M NaCl were added according to the method of Schmaier et al., Methods in Enzymology 169, 276 (1989). The treated plasma was then applied to a 2.5×20 cm column of CM-papain-SEPHAROSE 4B equilibrated in 50 mM phosphate buffer containing 2 M NaCl, 1 mM benzamidine-HCl, 40 μg/mL Polybrene, 0.2 mM PMSF, 0.02% (w/v) NaN3, pH 7.5. The CM-papain-SEPHAROSE 4B column was prepared by the procedure of Johnson et al., Thromb Res. 48, 187 (1987). HK and LK were eluted in a single peak after the addition of a 50 mM phosphate buffer solution containing 2 mM EDTA and 0.02% (w/v) NaN3, pH 11.5. Five ml fractions were collected into tubes containing 0.25 ml of a solution consisting of 4 mM PMSF in 1 M sodium acetate, pH 4.2 to bring the final pH to 6.0. The fractions containing HK and LK were then applied to a reactive Blue-Sepharose column (Sigma Chemical Corp, St. Louis, Mo.) equilibrated with 0.01 M sodium acetate pH 6.8 by the methods reported by Hasan et al., J. Biol. Chem. 269, 31822 (1994). […]

4-MAP: four-branch multiple antigenic peptide of BK analog SEQ ID NO:20 on a lysine-β-alanine core (RPPG; also: four-branch MAP on lysine-beta-alanine core)
effect on γ-thrombin-induced aggregation tracing (Human platelets in PRP; 0.05 mM): abolished

SEQ ID NO:15: synthesized hydrophobic peptide, sequence not printed (NATFYFKIDNVKKARVQVVAGKKYFI)
water solubility [1]: hydrophobic requiring 0.01% DMSO in order to solubilize it

SEQ ID NO:21: non-BK analog peptide derived from domain 3 of kininogen (LNAENNA) [reference compound]
protection of NAT12 / thrombin receptor from α-thrombin cleavage (α-thrombin; peptide 1 mM): no protection
cleavage product peak 2, share of non-treated NAT12 peak area (α-thrombin; peptide 1 mM, 8 nM α-thrombin): 32%
cleavage product peak 3, share of non-treated NAT12 peak area (α-thrombin; peptide 1 mM, 8 nM α-thrombin): 54%
reduction of NAT12 peak 1 area after α-thrombin (α-thrombin; peptide 1 mM, 8 nM α-thrombin, one hour 37° C.): 86%
effect on γ-thrombin-induced aggregation tracing (Human platelets in PRP; peptide 1 mM): unable to alter

B1: HK: human high molecular weight kininogen purified from plasma (protein, UniProt P01042 19-644, looked up)
Kininogen-1: QESQSEEIDCNDKDLFKAVDAALKKYNSQNQSNNQFVLYRITEATKTVGSDTFYSFKYEIKEGDCPVQSGKTWQDCEYKDAAKAATGECTATVGKRSSTKFSVATQTCQITPAEGPVVTAQYDCLGCVHPISTQSPDLEPILRHGIQYFNNNTQHSSLFMLNEVKRAQRQVVAGLNFRITYSIVQTNCSKENFLFLTPDCKSLWNGDTGECTDNAYIDIQLRIASFSQNCDIYPGKDFVQPPTKICVGCPRDIPTNSPELEETLTHTITKLNAENNATFYFKIDNVKKARVQVVAGKKYFIDFVARETTCSKESNEELTESCETKKLGQSLDCNAEVYVVPWEKKIYPTVNCQPLGMISLMKRPPGFSPFRSSRIGEIKEETTVSPPHTSMAPAQDEERDSGKEQGHTRRHDWGHEKQRKHNLGHGHKHERDQGHGHQRGHGLGHGHEQQHGLGHGHKFKLDDDLEHQGGHVLDHGHKHKHGHGHGKHKNKGKKNGKHNGWKTEHLASSSEDSTTPSAQTQEKTEGPTPIPSLAKPGVTVTFSDFQDSDLIATMMPPISPAPIQSDDDWIPDIQIDPNGLSFNPISDFPDTTSPKCPGRPWKSVSEINPTTQMKESYYFDLTDGLS
modifications: high molecular weight kininogen
inhibition of α-thrombin-induced calcium mobilization (human platelets): inhibited
inhibition of 125I-α-thrombin binding to platelets (washed platelets): able to inhibit
cleavage product peak 2, share of NAT12 peak 1 area (α-thrombin): 14%
cleavage product peak 3, share of NAT12 peak 1 area (α-thrombin): 18%
reduction of NAT12 peak 1 area after α-thrombin (α-thrombin; 8 nM α-thrombin): 32%
specific activity (procoagulant activity) [2]: 11-22 U/mg
